Source: patent US20200239585A1, “MODULATING THE IMMUNE RESPONSE USING ANTIBODY-DRUG CONJUGATES” (Seattle Genetics, Inc., priority 2017, published 2020)

Legend:
CD30+ cell lines = conditions: cited from earlier work
[1] = system: Hodgkin disease xenograft; conditions: SCID mouse xenograft models of Hodgkin disease; cited from earlier work
[2] = system: efflux pump activity of T cell subsets; assay: rhodamine 123 efflux assay; assay type: cell-based, human; conditions: 37° C., 5-hour time-course; FIG. 9D
Method: Sensitivity of cells to many chemotherapies, including MMAE, is influenced by cell-intrinsic drug efflux activity. T cell subsets were evaluated for relative efflux pump activity using a rhodamine 123 efflux assay, following manufacturer's protocol (Chemicon International, Multidrug Resistance Direct Dye Efflux Assay). Enriched T cell populations were loaded with rhodamine 123, incubated in a 37° C. water bath, and were measured for loss of fluorescence over a 5-hour time-course by flow cytometry.

[3] = system: inducible T regulatory cells (iTregs); assay: iTreg viability on in vitro proliferation with a titration of BV or control IgG-MMAE; assay type: cell-based, human; conditions: CD3/CD28 beads, 4-5 days
Method: CD4^+ T cells, isolated from healthy donor PBMC (Astarte Biologics, Bothell Wash.) were used to generate inducible T regulatory cells (iTregs). iTreg differentiation was performed over 1-2 weeks in 6-well tissue culture plates at 37° C. Cells were incubated with CD3/CD28 MACS iBead particles (Miltenyi biotec) at a 1:32 bead/cell ratio, in 2-3 ml of X-VIVO 15 media (Lonza) containing 1L-2 (50 ng/ml), TGFβ (50 ng/ml), and a 1:100 dilution of Lipid-Mixture 1 (Sigma-Aldrich). iTregs were evaluated for FoxP3 and CD30 expression by FACS analysis on an Attune NXT flow cytometer (Life Technologies). Following differentiation, individual donor iTreg populations ranged between 20-80% FoxP3^+ and 40-70% CD30^+.
To evaluate the effect of brentuximab vedotin (BV), and anti-CD30 antibody drug-conjugate on iTreg viability, cells were driven to proliferate in vitro in the presence of BV or control antibody drug-conjugate (IgG-MMAE). Briefly, iTregs were mixed with CD3/CD28 beads (8:1) in RPMI 10% FCS and were distributed at approximately 2.0×10^4 cells/well into a 96-well round-bottom plate. A titration of BV or control IgG-MMAE was added to replicate wells at the concentrations listed, for a final volume of 200 μl, and plates were incubated at 37° C. for 4-5 days. […]

iTregs and CD8+ T cells = assay: iTreg / CD8+ T cell co-culture suppression assay; assay type: cell-based, human; conditions: iTregs:CD8+ T cells 1:2, CD3/CD28 beads, four days, increasing concentrations, two donors; FIG. 2C, 2D
Method: As shown in FIG. 2A and FIG. 2B, increasing the iTreg/CD8^+ T cell ratio, for each donor, further abrogated T cell expansion, confirming suppressive function. To evaluate the effect of BV on iTreg suppression in vitro, co-culture suppression assays were performed. iTregs and CD8^+ T cells were mixed at a 1:2 ratio and combined with CD3/CD28 beads. Replicate wells were treated with a titration of BV or control IgG-MMAE. After four days of culture, viable iTregs and CD8^+ T cells were quantified by flow cytometry.

[4] = system: CD25hi CD127lo T regulatory cells; assay: activated peripheral blood Treg depletion in vitro; assay type: cell-based, human; conditions: four separate donors, CD3/CD28 beads+IL-2, 4-5 days; FIG. 3A
Method: (§1) CD25^hi CD127^lo T regulatory cells or CD8^+ T cells, enriched from peripheral blood derived leukoreduction system (LRS) chambers, were plated with CD3/CD28 beads+IL-2 in round-bottom 96-well tissue culture plates for 4-5 days with a titration of BV or control IgG-MMAE. On the final day of the assay, cells were stained as described above (viability dye and αCD30-PE antibody) and evaluated by flow cytometry.

CD8+ T cells = assay: activated peripheral blood CD8+ T cell depletion in vitro; assay type: cell-based, human; conditions: up to 10 μg/ml of BV, CD3/CD28 beads+IL-2, 4-5 days; FIG. 3B
Method: as §1

[5] = system: human T regulatory cells and CD8+ T cells; assay: xeno-GVHD model, human T cell subtypes in spleen; assay type: in vivo, NSG mice
[6] = system: peripheral blood T cell subsets; assay: immunophenotyping of peripheral blood in classical Hodgkin lymphoma patients after BV; assay type: in vivo, human
Excerpt: The effects of BV on circulating immune cells has not previously been fully elucidated. Sixty-two patients adult patients with classical Hodgkin lymphoma (cHL) that had relapsed or was refractory to frontline chemotherapy were enrolled in a study to evaluate treatment with BV. Patients were excluded if they previously received prior salvage therapy, including salvage radiotherapy, for refractory cHL; BV or any immuno-oncology therapy affecting the PD-1, CTLA4, or CD137 pathways; and/or allogeneic or autologous stem cell transplant (ASCT). BV was administered to the patients at a dose of 1.8 mg/kg on Day 1 and the patients were assessed on Day 8. Immunophenotyping of peripheral blood by flow cytometry was performed by Q2 Solutions on heparinized whole blood. Cell pellets, resulting from plasma banking, were sent to Adaptive for T Cell Receptor β (TCRβ) sequencing. Peripheral blood mononuclear cells were isolated from CPT tubes, frozen, and then analyzed in batches by Caprion using their intracellular cytokine staining platform following peptide stimulation.

## cAC10: chimeric IgG1 monoclonal antibody that specifically binds CD30
CD30+ cell lines
  growth of CD30+ cell lines in vitro: induces growth arrest
[1]
  antitumor activity: pronounced antitumor activity

## rhodamine 123 [rhodamine-123]
[2]
  clearance of intracellular rhodamine-123 in CD8+ T cells: rapid clearance
  rhodamine-123 efflux in T regulatory cells among T cell subsets: slowest

B1: brentuximab vedotin (conjugate)
VH: QIQLQQSGPEVVKPGASVKISCKASGYTFTDYYITWVKQKPGQGLEWIGWIYPGSGNTKYNEKFKGKATLTVDTSSSTAFMQLSSLTSEDTAVYFCANYGNYWFAYWGQGTQVTVSA
VL: DIVLTQSPASLAVSLGQRATISCKASQSVDFDGDSYMNWYQQKPGQPPKVLIYAASNLESGIPARFSGSGSGTDFTLNIHPVEEEDAATYYCQQSNEDPWTFGGGTKLEIK
[3]; FIG. 1B
  numbers of CD30+ iTregs: enhanced depletion
[3]; five separate donors, FIG. 1A
  total viable iTreg numbers: dose-dependent reduction
iTregs and CD8+ T cells
  CD8+ T cell accumulation in co-culture: augmented
  viable iTregs in co-culture: selectively reduced
[4]
  viable CD30+ Treg numbers: dose-dependent reduction
CD8+ T cells
  depletion of CD30+ CD8+ T cells: did not deplete
[5]; single i.p. 3 mg/kg on day 5, spleens on day 12, compared to PBS alone, FIG. 4A
  human T regulatory cells in the spleen: significantly reduced
[5]; single i.p. 3 mg/kg on day 5, spleens on day 12, FIG. 4B
  splenic CD8+ T cells: unaffected by BV treatment with a trend toward increased numbers
[5]; single i.p. 3 mg/kg on day 5, spleens on day 12, FIG. 4C
  CD8+ T cell/Treg ratio in vivo: increased
[6]; 1.8 mg/kg on Day 1, assessed on Day 8
  reduction of CD30+ regulatory T cells compared to reduction of other CD30+ T helper cells: more significantly
[6]; 1.8 mg/kg on Day 1, assessed on Day 8, peripheral blood, FIG. 5
  T helper cell subset populations including regulatory T cells: reduction
[6]; 1.8 mg/kg on Day 1, assessed on Day 8, FIG. 7
  number of CD30-expressing regulatory T cells in the peripheral blood: significantly reduced
[6]; single treatment, versus baseline, FIG. 7
  number of CD30+ T regulatory cells as compared to CD30− T regulatory cells: reduced
